Experiments:
HLA-B*83:01 = experiment: IEDB peptide-MHC binding, purified MHC/competitive/fluorescence; filed as Kd, often an IC50 or EC50 that approximates it; ≥ and ≤ were set here for values at or beyond the usual limits of such assays; details: source organism: Mycobacterium tuberculosis variant bovis BCG str. Pasteur 1173P2
HLA-B*15:01 = experiment: as above; details: source organism: Mycobacterium tuberculosis variant bovis BCG str. Pasteur 1173P2
HLA-A*01:01 [1] = experiment: as above; details: source organism: Mycobacterium tuberculosis variant bovis BCG str. Pasteur 1173P2
HLA-B*15:42 = experiment: as above; details: source organism: Mycobacterium tuberculosis variant bovis BCG str. Pasteur 1173P2
HLA-B*39:01 = experiment: as above; details: source organism: Mycobacterium tuberculosis variant bovis BCG str. Pasteur 1173P2
HLA-B*45:06 = experiment: as above; details: source organism: Mycobacterium tuberculosis variant bovis BCG str. Pasteur 1173P2
HLA-B*27:05 = experiment: IEDB peptide-MHC binding, purified MHC/direct/fluorescence; filed as Kd, often an IC50 or EC50 that approximates it; ≥ and ≤ were set here for values at or beyond the usual limits of such assays; details: source organism: Mycobacterium tuberculosis
HLA-B*57:01 = experiment: as above; details: source organism: Mycobacterium tuberculosis
HLA-B*40:01 = experiment: as above; details: source organism: Mycobacterium tuberculosis
HLA-B*51:01 = experiment: as above
HLA-A*03:01 = experiment: as above; details: source organism: Mycobacterium tuberculosis
HLA-B*15:17 = experiment: as above; details: source organism: Mycobacterium tuberculosis
HLA-A*02:01 [2] = experiment: as above; details: source organism: Mycobacterium tuberculosis
HLA-B*18:01 = experiment: as above; details: source organism: Mycobacterium tuberculosis
HLA-A*26:01 = experiment: as above; details: source organism: Mycobacterium tuberculosis str. Haarlem
HLA-A*69:01 = experiment: as above; details: source organism: Mycobacterium tuberculosis
HLA-A*11:01 = experiment: as above; details: source organism: Mycobacterium tuberculosis
HLA-B*15:09 = experiment: as above; details: source organism: Mycobacterium tuberculosis str. Haarlem
HLA-B*58:01 = experiment: as above; details: source organism: Mycobacterium tuberculosis
HLA-A*31:01 = experiment: as above; details: source organism: Mycobacterium tuberculosis
HLA-B*46:01 = experiment: as above; details: source organism: Mycobacterium tuberculosis
HLA-B*48:01 = experiment: as above; details: source organism: Mycobacterium tuberculosis
HLA-A*01:01 [3] = experiment: IEDB peptide-MHC binding, purified MHC/competitive/fluorescence; ≥ and ≤ were set here for values at or beyond the usual limits of such assays; details: source organism: Zaire ebolavirus
HLA-A*02:01 [4] = experiment: as above; details: source organism: Zaire ebolavirus
HLA-A*24:02 = experiment: as above; details: source organism: Zaire ebolavirus

RPRCAYLPF
Kd (HLA-B*83:01): 0.0317 µM | Kd (HLA-B*15:01): 2.17 µM | Kd (HLA-A*01:01 [1]): ≥ 20 µM | Kd (HLA-B*15:42): ≥ 5 µM | Kd (HLA-B*39:01): ≥ 20 µM | Kd (HLA-B*45:06): ≥ 5 µM | Kd (HLA-B*27:05): ≥ 20 µM | Kd (HLA-B*57:01): ≥ 20 µM | Kd (HLA-B*40:01): ≥ 20 µM | Kd (HLA-B*51:01; source organism: Mycobacterium tuberculosis): ≥ 20 µM | Kd (HLA-A*03:01): ≥ 20 µM | Kd (HLA-B*15:17): 0.197 µM | Kd (HLA-A*02:01 [2]): ≥ 20 µM | Kd (HLA-B*18:01): 5.59 µM | Kd (HLA-A*26:01): 2.6 µM | Kd (HLA-A*69:01): ≥ 20 µM | Kd (HLA-A*11:01): ≥ 20 µM | Kd (HLA-B*15:09): ≥ 20 µM | Kd (HLA-B*58:01): ≥ 20 µM | Kd (HLA-A*31:01): ≥ 20 µM | Kd (HLA-B*46:01): 5.59 µM | Kd (HLA-B*48:01): ≥ 20 µM

SPGRKNGSF
Kd (HLA-B*51:01; source organism: Yellow fever virus 1899/81): ≥ 20 µM

TLDGQQFYW
IC50 (HLA-A*01:01 [3]): 35.3 µM | IC50 (HLA-A*02:01 [4]): 2.22 µM | IC50 (HLA-A*24:02): 0.182 µM

Source: the Immune Epitope Database (IEDB)
